Target: T1, FEZ1 (amino acids 1-308), EmGFP-tagged (UniProt Q99689 1-308)
T1 construct: FEZ1, amino acids 1-308; plasmid as described in Chua et al., 2012; also called truncated FEZ1 lacking its C terminus; source: HEK293, transfected, in lysate
T1 sequence (looked up): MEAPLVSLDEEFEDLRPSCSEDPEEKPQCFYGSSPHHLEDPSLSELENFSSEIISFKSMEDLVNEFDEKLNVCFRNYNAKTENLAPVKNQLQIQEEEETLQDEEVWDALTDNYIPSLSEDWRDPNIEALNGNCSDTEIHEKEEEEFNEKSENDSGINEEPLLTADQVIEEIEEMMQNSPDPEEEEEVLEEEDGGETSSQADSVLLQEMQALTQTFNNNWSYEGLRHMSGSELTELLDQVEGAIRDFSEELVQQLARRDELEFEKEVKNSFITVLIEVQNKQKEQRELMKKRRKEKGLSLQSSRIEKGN
Test: co-IP; HEK293 cells co-expressing the two tagged proteins, 24 h after transfection; lysis and washes in 50 mM HEPES, 150 mM NaCl, 1 mM EDTA, 1% Triton X-100, pH 7.2; GFP-Trap agarose beads 1-3 h at 4°C; immunoblot
Settings: partners not purified

B1: collapsin response mediator protein 1 (CRMP1), full-length, FLAG-tagged (natural protein)
chain: not shown
notes: CRMP1, human cDNA, full-length, in pFLAG-CMV2; also called FLAG-CRMP1; source: HEK293, transfected, in lysate
fold change of co-precipitated CRMP1 against full-length FEZ1: ~3 fold
